The values below come from patent publication US20260242507A1 (KITE PHARMA, published 2026).

Test [1] deals with T1, recombinant human GPC3(Q25-H559)-6xHis (human, UniProt P51654 25-559).
T1 construct: range 25-559; also called rhGPC3; RhGPC3
Briefly: BLI (Octet Red96), scFv mFc captured on an AMC biosensor, rhGPC3 lot 2 at a single 500 nM concentration, 1:1 model.

For test [2], the target named is human GPC3 (glypican 3), full length, on cells (human) (UniProt P51654). Briefly: cell-based or functional assay.
The target of test [3] is mouse GPC3 overexpressed on K562 cells (mouse) (UniProt Q8CFZ4). Briefly: cell-based or functional assay.
Test [4] has as its target T2, human GPC5 overexpressed on K562 cells (human) (UniProt P78333).
T2 sequence (looked up): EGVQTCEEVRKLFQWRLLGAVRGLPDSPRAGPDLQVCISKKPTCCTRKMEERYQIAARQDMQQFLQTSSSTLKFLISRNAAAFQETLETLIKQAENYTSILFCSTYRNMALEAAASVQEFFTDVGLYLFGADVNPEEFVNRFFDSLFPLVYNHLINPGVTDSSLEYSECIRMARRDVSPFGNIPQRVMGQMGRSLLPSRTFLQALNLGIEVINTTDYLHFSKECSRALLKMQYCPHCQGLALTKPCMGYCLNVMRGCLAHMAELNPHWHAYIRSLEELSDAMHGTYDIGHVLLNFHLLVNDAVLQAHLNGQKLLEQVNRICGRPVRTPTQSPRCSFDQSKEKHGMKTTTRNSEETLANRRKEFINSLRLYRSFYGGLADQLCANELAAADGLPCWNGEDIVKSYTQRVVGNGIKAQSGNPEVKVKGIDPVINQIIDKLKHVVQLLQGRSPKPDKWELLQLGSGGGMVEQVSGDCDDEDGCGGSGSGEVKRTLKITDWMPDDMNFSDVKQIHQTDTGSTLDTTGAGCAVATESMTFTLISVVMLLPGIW
Briefly: cell-based or functional assay.

Test [5] concerns the target T1, recombinant human GPC3(Q25-H559)-6xHis. Briefly: BLI (Octet Red96), scFv-Fc captured on AMC biosensors, rhGPC3 lot 1 as analyte, 1:1 model, global fit. As for the experimental part:
(§1) A kinetics constant for mAb1-1 scFv mFc binding to its target, GPC3, was determined using a Sartorius Octet Red96 with AMC biosensors. mAb1-1 scFv-Fc was diluted to 2 ug/mL and captured onto 7 AMC biosensor tips under agitation. One biosensor was left blank as a reference. Two lots of recombinant human GPC3(Q25-H559)-6×His (rhGPC3) at 464.3, 154.8, 51.59, 17.2, 5.73, 1.911 and 0 nM were used as analytes. The association phase was measured for 90 sec and the dissociation was measured for 120 sec. All measurements were corrected for baseline drift by subtracting a control sensor exposed to running buffer only. The data were analyzed using a 1:1 interaction model with global fitting for each analyte lot separately, using Octet analysis software.

For test [6] the target is unchanged. Briefly: BLI (Octet Red96), scFv-Fc captured on AMC biosensors, rhGPC3 lot 2 as analyte, 1:1 model, global fit. As to the method:
as §1

Positions count from the first letter of the chain named.

mouse GPC3 overexpressed on K562 cells (mouse), sequence (Q8CFZ4 25-579): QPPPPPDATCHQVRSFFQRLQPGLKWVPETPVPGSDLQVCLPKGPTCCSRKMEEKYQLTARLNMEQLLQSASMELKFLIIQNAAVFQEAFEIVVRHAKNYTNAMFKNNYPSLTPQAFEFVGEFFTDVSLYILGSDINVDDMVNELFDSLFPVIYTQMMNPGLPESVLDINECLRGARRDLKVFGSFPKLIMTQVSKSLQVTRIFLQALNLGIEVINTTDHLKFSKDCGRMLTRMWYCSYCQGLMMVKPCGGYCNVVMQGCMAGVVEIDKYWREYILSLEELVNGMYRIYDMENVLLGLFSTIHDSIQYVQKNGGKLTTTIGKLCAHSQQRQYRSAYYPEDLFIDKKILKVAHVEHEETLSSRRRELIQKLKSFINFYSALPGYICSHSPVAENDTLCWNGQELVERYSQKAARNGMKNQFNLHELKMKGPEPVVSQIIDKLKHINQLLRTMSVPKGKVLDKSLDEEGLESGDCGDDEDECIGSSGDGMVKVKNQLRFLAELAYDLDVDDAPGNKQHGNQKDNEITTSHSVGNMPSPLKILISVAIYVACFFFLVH
human GPC3 (glypican 3), full length, on cells (human), sequence (P51654 25-554 limits assumed): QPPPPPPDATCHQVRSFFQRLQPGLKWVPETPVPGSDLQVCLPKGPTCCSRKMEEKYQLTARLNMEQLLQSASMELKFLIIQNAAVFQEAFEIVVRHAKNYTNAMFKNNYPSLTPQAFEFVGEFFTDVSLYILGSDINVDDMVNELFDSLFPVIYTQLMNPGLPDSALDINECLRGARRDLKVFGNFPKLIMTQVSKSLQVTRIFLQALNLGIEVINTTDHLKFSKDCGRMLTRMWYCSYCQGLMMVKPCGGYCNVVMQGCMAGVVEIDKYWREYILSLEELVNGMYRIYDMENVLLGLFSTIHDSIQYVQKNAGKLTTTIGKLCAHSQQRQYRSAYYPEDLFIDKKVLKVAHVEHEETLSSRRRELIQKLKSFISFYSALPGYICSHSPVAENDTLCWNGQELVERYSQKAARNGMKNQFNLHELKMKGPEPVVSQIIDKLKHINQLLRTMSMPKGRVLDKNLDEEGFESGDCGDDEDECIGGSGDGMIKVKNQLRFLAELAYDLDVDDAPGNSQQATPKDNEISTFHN
T1 sequence (P51654 other isoform, or with tags, fused parts or gaps limits assumed, form in doubt): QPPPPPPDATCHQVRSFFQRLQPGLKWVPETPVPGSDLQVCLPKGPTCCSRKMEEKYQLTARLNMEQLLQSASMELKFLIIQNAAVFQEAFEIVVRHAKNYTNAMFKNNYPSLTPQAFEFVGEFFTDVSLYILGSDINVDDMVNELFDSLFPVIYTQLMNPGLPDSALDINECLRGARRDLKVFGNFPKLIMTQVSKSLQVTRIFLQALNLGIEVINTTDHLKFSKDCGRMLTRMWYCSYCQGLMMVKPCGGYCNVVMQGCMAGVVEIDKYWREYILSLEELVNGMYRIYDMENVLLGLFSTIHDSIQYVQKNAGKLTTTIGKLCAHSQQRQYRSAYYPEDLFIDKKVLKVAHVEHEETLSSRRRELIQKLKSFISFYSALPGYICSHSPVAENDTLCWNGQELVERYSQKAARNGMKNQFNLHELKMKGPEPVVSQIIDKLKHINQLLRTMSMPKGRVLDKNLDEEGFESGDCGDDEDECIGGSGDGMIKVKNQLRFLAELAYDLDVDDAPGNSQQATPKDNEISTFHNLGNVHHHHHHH

Consider YP7 scFv mFc (Fc fusion), for which, in test [1], the Kd stood at 8.73 nM, the koff was 0.000675 s⁻¹ and the kon amounted to 77300 M⁻¹ s⁻¹.

B1: hmAb1-2 CAR (protein, part only; not given: hinge, transmembrane and signaling domains, part only)
chain, part: QVQLVQSGAEVKKPGASVKVSCKASGYTFTDYYIHWVRQAPGQGLEWMGEIYPGSGNTYYAQKFQGRVTMTRDTSTSTVYMELSSLRSEDTAVYYCARGNDYDAWFVYWGQGTLVTVSSGSTSGSGKPGSGEGSTKGDIVMTQSPDSLAVSLGERATINCKSSQSLLNSGTRKNYLAWYQQKPGQPPKLLIYWASIRESGVPDRFSGSGSGTDFTLTISSLQAEDVAVYYCKQSYSLYTFGQGTKLEIK
As to B1, in test [2], the % cytolysis of Hep3B at 164h, xCELLigence, 500 CAR T cells, Donor 1 stood at 95.7%; the % cytolysis of Hep3B at 164h, xCELLigence, 500 CAR T cells, Donor 2 came out at 91.3%; the % dead target cells, flow cytometry, 48h, Hep3B turned out to be 89.4%. In addition, in test [3], the % dead target cells, flow cytometry, 48h, K562-mouse GPC3 was 48.3%. Also, the % dead target cells, flow cytometry, 48h, K562-human GPC5 in test [4] worked out at 18.2%.

B2: mAb1-1 scFv-Fc (single chain variable fragment fused to a murine IgG2A fragment crystallizable domain) (Fc fusion)
chain: B1 chain, part with A24T, R72A, V79A, A156V, I158M, L221V
notes: also called mAb1-1 scFv mFc; not shown: murine IgG2A fragment crystallizable (Fc) domain
Consider B2, for which, in test [5], the Kd was 32.7 nM, the koff was 0.00712 s⁻¹ and the kon came out at 218000 M⁻¹ s⁻¹. Also, in test [6], the Kd turned out to be 35.2 nM, the dissociation rate constant (koff) came out at 0.00785 s⁻¹ and the kon came to 223000 M⁻¹ s⁻¹.

B3: mAb1-1_DNR2 CAR (mAb1-1 CAR co-expressed with TGFbDNR2) (protein, part only; not given: CAR signaling domains and DN TGFbR2, part only)
chain, part: B1 chain, part with A24T, R72A, V79A, A156V, I158M, L221V
In test [2], B3 came in with a % cytolysis, xCELLigence, Hep3B, High E:T (1,000 CAR T cells) of 100%; a % cytolysis, xCELLigence, Hep3B, Low E:T (500 CAR T cells) of 99%; a % cytolysis, xCELLigence, Huh7, High E:T (10,000 CAR T cells) of 100%; a % cytolysis, xCELLigence, Huh7, Low E:T (500 CAR T cells) of 44%. Further, in test [2], the IFNg secretion after 24 h coculture with Hep3B, Luminex, replicate 1 came to 37700 pg/mL; the IFNg secretion after 24 h coculture with Hep3B, Luminex, replicate 2 was 39400 pg/mL; the IFNg secretion after 24 h coculture with Hep3B, Luminex, replicate 3 amounted to 44500 pg/mL.

B4: hmAb1-4 CAR (protein, part only; not given: hinge, transmembrane and signaling domains, part only)
chain, part: B1 chain, part with A24T, M48I, V68A, M70L, R72A, V79A, L83F
For the molecule B4, in test [2], the % cytolysis of Hep3B at 164h, xCELLigence, 500 CAR T cells, Donor 1 was determined as 94.9%; the % cytolysis of Hep3B at 164h, xCELLigence, 500 CAR T cells, Donor 2 came to 89.6%; the % dead target cells, flow cytometry, 48h, Hep3B was 89.8%. The % dead target cells, flow cytometry, 48h, K562-mouse GPC3 in test [3] was 52.7%. Besides, in test [4], the % dead target cells, flow cytometry, 48h, K562-human GPC5 is 16.4%.

B5: hmAb1-5 CAR (protein, part only; not given: hinge, transmembrane and signaling domains, part only)
chain, part: B1 chain, part with A24T, M48I, V68A, M70L, R72A, V79A, L83F, A156V, I158M, L221V
Take B5: in test [2], the % cytolysis of Hep3B at 164h, xCELLigence, 500 CAR T cells, Donor 1 is 99.3%; the % cytolysis of Hep3B at 164h, xCELLigence, 500 CAR T cells, Donor 2 turned out to be 95%; the % dead target cells, flow cytometry, 48h, Hep3B amounted to 90.5%. In test [3], this molecule gave a % dead target cells, flow cytometry, 48h, K562-mouse GPC3 of 52.9%. In test [4], this molecule returned a % dead target cells, flow cytometry, 48h, K562-human GPC5 of 18.5%.

B6: hmAb1-3 CAR (protein, part only; not given: hinge, transmembrane and signaling domains, part only)
chain, part: B1 chain, part with A24T, R72A, V79A
Turning to B6, in test [2], the % cytolysis of Hep3B at 164h, xCELLigence, 500 CAR T cells, Donor 1 was found to be 97.1%; the % cytolysis of Hep3B at 164h, xCELLigence, 500 CAR T cells, Donor 2 worked out at 89.4%; the % dead target cells, flow cytometry, 48h, Hep3B is 89.9%. The % dead target cells, flow cytometry, 48h, K562-mouse GPC3 in test [3] worked out at 50.5%. This molecule displayed a % dead target cells, flow cytometry, 48h, K562-human GPC5 in test [4] of 16.3%.

B7: hmAb1-1 CAR (protein, part only; not given: hinge, transmembrane and signaling domains, part only)
chain, part: B1 chain, part with A24T, R72A, V79A, A156V, I158M, L221V
Regarding B7, in test [2], the % cytolysis of Hep3B at 164h, xCELLigence, 500 CAR T cells, Donor 1 was found to be 96.4%; the % cytolysis of Hep3B at 164h, xCELLigence, 500 CAR T cells, Donor 2 was 93.4%; the % dead target cells, flow cytometry, 48h, Hep3B was found to be 91.1%. This molecule also returned a % dead target cells, flow cytometry, 48h, K562-mouse GPC3 in test [3] of 53.9%. Further, the % dead target cells, flow cytometry, 48h, K562-human GPC5 in test [4] was found to be 17.7%.
